Target: full length pHrodo-labelled monomeric (P301S) 2N4R tau (human) (UniProt P10636)
Assay: cell-based or functional assay

Sequence of full length pHrodo-labelled monomeric (P301S) 2N4R tau (human) (P10636 other isoform, or with tags, fused parts or gaps P301S P301S): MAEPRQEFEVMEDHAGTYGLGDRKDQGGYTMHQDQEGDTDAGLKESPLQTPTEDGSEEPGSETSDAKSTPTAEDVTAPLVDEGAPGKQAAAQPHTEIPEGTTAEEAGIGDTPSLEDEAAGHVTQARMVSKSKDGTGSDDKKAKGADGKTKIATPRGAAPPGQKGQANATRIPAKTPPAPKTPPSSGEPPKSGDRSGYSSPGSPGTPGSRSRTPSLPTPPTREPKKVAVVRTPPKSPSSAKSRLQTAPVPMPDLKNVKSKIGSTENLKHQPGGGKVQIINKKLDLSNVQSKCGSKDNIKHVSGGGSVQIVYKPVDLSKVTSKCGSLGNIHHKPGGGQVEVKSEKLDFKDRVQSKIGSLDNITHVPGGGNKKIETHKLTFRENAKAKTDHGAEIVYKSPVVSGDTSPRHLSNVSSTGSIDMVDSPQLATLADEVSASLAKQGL

inhibition of uptake of monomeric tau into human iPSC-derived neurons | Substance
16.9 % inhibition | human IgG1 isotype control (antibody)
14.5 % inhibition | isotype control rabbit IgG (Abcam) (antibody)

Source: patent US20220265819A1
